US20110152173A1 (EMERGENT PRODUCT DEVELOPMENT SEATTLE, published 2011)
Each block holds one binder with its values, some of them ahead of it.

Key:
[1] = target: T1, recombinant human TNF-α (human, UniProt P01375 77-233); test: ELISA: plate-coated HIL-6, Xceptor, then rhTNF-α, detected with anti-TNF-α-biotin (simultaneous binding)
T1 construct: also called rhTNFα
Description: The plate was covered, and incubated overnight at 4° C. […] The absorbance of each well was read at 450 nm.

[2] = target: T1, recombinant human TNF-α; test: ELISA: Xceptor captured on anti-human IgG-Fc, rhTNF-α added, detected with anti-TNF-α-biotin
Description: Added to each well of a 96-well plate was 100 μl goat anti-human IgG-Fc (ICN Pharmaceuticals, Costa Mesa, Calif.) from a 2 μg/ml solution in PBS, pH 7.2-7.4. The plate was covered, and incubated overnight at 4° C. After washing four times with PBS-T, 250 μl Blocking buffer was added to each well, the plate was covered, and incubated at room temperature for 2 hours (or at 4° C. overnight). […] After washing the plate five times with PBS-T, 100 μl per well horse radish peroxidase-conjugated streptavidin (Jackson ImmunoResearch, West Grove, Pa.) diluted 1:1,000 in Working buffer was added, the plate was covered, and incubated at room temperature for 30 minutes. After washing the plate six times with PBS-T, 100 μl per well 3,3,5,5-tetramentylbenzidine (TMB) substrate solution (Pierce, Rockford, Ill.) was added for about 3 to 5 minutes and then the reaction was stopped with 50 μl Stop buffer (1N H₂SO₄) per well. The absorbance of each well was read at 450 nm.

[3] = target: T2, recombinant human sIL-6R (human, UniProt P08887 20-358, limits assumed); test: ELISA: Xceptor captured on anti-human IgG-Fc, sIL-6R added, detected with anti-IL-6R-biotin
T2 construct: Bought; also called human soluble IL6R
T2 sequence (looked up): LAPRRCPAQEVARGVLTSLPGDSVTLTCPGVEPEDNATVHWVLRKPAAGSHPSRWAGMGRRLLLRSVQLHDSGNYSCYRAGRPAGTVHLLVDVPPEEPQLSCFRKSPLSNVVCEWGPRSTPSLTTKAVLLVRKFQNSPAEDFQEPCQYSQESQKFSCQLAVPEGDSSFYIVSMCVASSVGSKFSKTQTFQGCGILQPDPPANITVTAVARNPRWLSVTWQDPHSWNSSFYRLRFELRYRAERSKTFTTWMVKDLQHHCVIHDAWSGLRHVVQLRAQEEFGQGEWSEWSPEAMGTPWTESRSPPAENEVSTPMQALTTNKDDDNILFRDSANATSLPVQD
Description: Added to each well of a 96-well plate was 100 μl goat anti-human IgG-Fc (ICN Pharmaceuticals, Costa Mesa, Calif.) from a 2 μg/ml solution in PBS, pH 7.2-7.4. The plates were covered, and incubated overnight at 4° C. After washing four times with PBS-T, 250 μl Blocking buffer (PBS-T with 3% BSA or 10% normal goat serum) was added to each well, the plate was covered, and incubated at room temperature for 2 hours (or at 4° C. overnight). […] After washing the plate five times with PBS-T, added in duplicate wells was 100 μl/well recombinant human sIL-6R(R&D Systems) from a […] solution in Working buffer, the plate was covered, and incubated at room temperature for about 1 to 2 hours. After washing the plate five times with PBS-T, added 100 μl/well anti-human IL-6R-biotin (R&D Systems) from a 100 ng/ml solution in Working buffer, the plate was covered, and incubated at room temperature for about 1 to 2 hours. After washing the plate five times with PBS-T, 100 μl per well horse radish peroxidase-conjugated streptavidin (Zymed, San Francisco, Calif.) diluted 1:4,000 in Working buffer was added, the plate was covered, and incubated at room temperature for 30 minutes. After washing the plate six times with PBS-T, 100 μl per well 3,3,5,5-tetramentylbenzidine (TMB) substrate solution (Pierce, Rockford, Ill.) was added for about 3 to 5 minutes and then the reaction was stopped with 50 μl Stop buffer (1N H₂SO₄) per well. The absorbance of each well was read at 450 nm.

[4] = target: TNFα (Biacore analyte of Example 12) (UniProt P01375 77-233, limits assumed); test: SPR (Biacore T100): binder captured by anti-human Fc, TNFα injected
From the text: The unoccupied sites of the activated surface were blocked by ethanolamine. […] At the end of the cycle, the surface was regenerated gently using 3M MgCl₂ which dissociates protein bound to anti hFc capture antibody. […] The value of this parameter was then fixed and the data from the low density surface were used to calculate the association rate constant, kₐ and the Rₘₐₓ. This strategy maximizes signal-to-noise for the dissociation phase data and reduces the mass transport limitation for the association phase data. BIAevaluation software was used to perform these analyses.

Chain of TNFα (Biacore analyte of Example 12) (P01375 77-233 limits assumed): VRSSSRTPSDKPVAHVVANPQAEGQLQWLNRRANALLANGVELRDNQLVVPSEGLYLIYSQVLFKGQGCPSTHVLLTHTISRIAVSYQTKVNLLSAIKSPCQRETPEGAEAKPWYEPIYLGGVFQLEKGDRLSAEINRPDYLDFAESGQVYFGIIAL
T1 sequence (P01375 77-233 limits assumed): as above

binding result [2]: binds | binding result [3]: no binding
B2: TRU(XT6)-1019 (Fc fusion)
chain: LPAQVAFTPYAPEPGSTCRLREYYDQTAQMCCSKCSPGQHAKVFCTKTSDTVCDSCEDSTYTQLWNWVPECLSCGSRCSSDQVETQACTREQNRICTCRPGWYCALSKQEGCRLCAPLRKCRPGFGVARPGTETSDVVCKPCAPGTFSNTTSSTDICRPHQICNVVAIPGNASMDAVCTSTSPTRSMAPGAVHLPQPVSTRSQHTQPTPEPSTAPSTSFLLPMGPSPPAEGSTGDTGEPKSSDKTHTCPPCPAPEAAGAPSVFLFPPKPKDTLMISRTPEVTCVVVDVSHEDPEVKFNWYVDGVEVHNAKTKPREEQYNSTYRVVSVLTVLHQDWLNGKAYACAVSNKALPAPIEKTISKAKGQPREPQVYTLPPSRDELTKNQVSLTCLVKGFYPSDIAVEWESNGQPENNYKTTPPVLDSDGSFFLYSKLTVDKSRWQQGNVFSCSVMHEALHNHYTQKSLSLSPGQRHNNSSLNTRTQKARHSPNSEVQLLESGGGLVQPGGSLRLSCAASGFTFSWYLMHWVRQAPGKGLEWVSGIWPSGGHTLYADSVKGRFTISRDNSKNTLYLQMNSLRAEDTAVYYCAREPLLWFGELSYNWFDPWGQGTLVTVSSGGGGSGGGGSGGGGSQDIQMTQSPSSVSASVGDRVTITCRASQGISSWLAWYQQKPGKAPKLLIYAASSLQSGVPSRFSGSGSGTDFTLTISSLQPEDFATYYCQQANSFPLTFGGGTKVEIK
notes: not trimmed; also called Xceptor TNFRSF1B::anti-HIL6

binding result [2]: binds | binding result [3]: no binding
B3: TRU(X6T)-1019 (Fc fusion)
chain: EVQLLESGGGLVQPGGSLRLSCAASGFTFSWYLMHWVRQAPGKGLEWVSGIWPSGGHTLYADSVKGRFTISRDNSKNTLYLQMNSLRAEDTAVYYCAREPLLWFGELSYNWFDPWGQGTLVTVSSGGGGSGGGGSGGGGSQDIQMTQSPSSVSASVGDRVTITCRASQGISSWLAWYQQKPGKAPKLLIYAASSLQSGVPSRFSGSGSGTDFTLTISSLQPEDFATYYCQQANSFPLTFGGGTKVEIKTGEPKSSDKTHTCPPCPAPEAAGAPSVFLFPPKPKDTLMISRTPEVTCVVVDVSHEDPEVKFNWYVDGVEVHNAKTKPREEQYNSTYRVVSVLTVLHQDWLNGKAYACAVSNKALPAPIEKTISKAKGQPREPQVYTLPPSRDELTKNQVSLTCLVKGFYPSDIAVEWESNGQPENNYKTTPPVLDSDGSFFLYSKLTVDKSRWQQGNVFSCSVMHEALHNHYTQKSLSLSPGQRHNNSSLNTRTQKARHSPNSLPAQVAFTPYAPEPGSTCRLREYYDQTAQMCCSKCSPGQHAKVFCTKTSDTVCDSCEDSTYTQLWNWVPECLSCGSRCSSDQVETQACTREQNRICTCRPGWYCALSKQEGCRLCAPLRKCRPGFGVARPGTETSDVVCKPCAPGTFSNTTSSTDICRPHQICNVVAIPGNASMDAVCTSTSPTRSMAPGAVHLPQPVSTRSQHTQPTPEPSTAPSTSFLLPMGPSPPAEGSTGD
notes: also called Xceptor in the reverse orientation

Second part, the binder before the results:

B1: TRU(XT6)-1006 (Fc fusion)
chain: LPAQVAFTPYAPEPGSTCRLREYYDQTAQMCCSKCSPGQHAKVFCTKTSDTVCDSCEDSTYTQLWNWVPECLSCGSRCSSDQVETQACTREQNRICTCRPGWYCALSKQEGCRLCAPLRKCRPGFGVARPGTETSDVVCKPCAPGTFSNTTSSTDICRPHQICNVVAIPGNASMDAVCTSTSPTRSMAPGAVHLPQPVSTRSQHTQPTPEPSTAPSTSFLLPMGPSPPAEGSTGDTGEPKSSDKTHTCPPCPAPEAAGAPSVFLFPPKPKDTLMISRTPEVTCVVVDVSHEDPEVKFNWYVDGVEVHNAKTKPREEQYNSTYRVVSVLTVLHQDWLNGKAYACAVSNKALPAPIEKTISKAKGQPREPQVYTLPPSRDELTKNQVSLTCLVKGFYPSDIAVEWESNGQPENNYKTTPPVLDSDGSFFLYSKLTVDKSRWQQGNVFSCSVMHEALHNHYTQKSLSLSPGQRHNNSSLNTRTQKARHSPNSEVQLLESGGGLVQPGGSLRLSCAASGFTFSQYNMIWVRQAPGKGLEWVSWISSSGGTEYADSVKGRFTISRDNSKNTLYLQMNSLRAEDTAVYYCAKDRGYGSGSYGAYDAFDIWGQGTMVTVSSGGGGSGGGGSGGGGSQDIQMTQSPSSLSASVGDRVTITCQTSQSIDRYLNWYQQKAGEAPKLLIYAASSLQSGVPSRFSGSGSGTDFTLTISSLQPEDFASYYCQQSYRTPRTFGQGTKVEIK
notes: not trimmed; also called Xceptor TNFRSF1B::HIL6
binding result [1]: binds

B4: TRU(XT6)-1058 (Fc fusion)
chain: LPAQVAFTPYAPEPGSTCRLREYYDQTAQMCCSKCSPGQHAKVFCTKTSDTVCDSCEDSTYTQLWNWVPECLSCGSRCSSDQVETQACTREQNRICTCRPGWYCALSKQEGCRLCAPLRKCRPGFGVARPGTETSDVVCKPCAPGTFSNTTSSTDICRPHQICNVVAIPGNASMDAVCTSTSPTRSMAPGAVHLPQPVSTRSQHTQPTPEPSTAPSTSFLLPMGPSPPAEGSTGDTGEPKSSDKTHTCPPCPAPEAAGAPSVFLFPPKPKDTLMISRTPEVTCVVVDVSHEDPEVKFNWYVDGVEVHNAKTKPREEQYNSTYRVVSVLTVLHQDWLNGKAYACAVSNKALPAPIEKTISKAKGQPREPQVYTLPPSRDELTKNQVSLTCLVKGFYPSDIAVEWESNGQPENNYKTTPPVLDSDGSFFLYSKLTVDKSRWQQGNVFSCSVMHEALHNHYTQKSLSLSPGQRHNNSSLNTRTQKARHSPNSEVQLLESGGGLVQPGGSLRLSCAASGFTFSMYTMHWVRQAPGKGLEWVSWISPSGGWTKYADSVKGRFTISRDNSKNTLYLQMNSLRAEDTAVYYCAVSPWGGPFDYWGQGTLVTVSSGGGGSGGGGSGGGGSQDIQMTQSPSTLSASVGDRVTITCRASQSISSWLAWYQQKPGKAPKLLIYKASTLESGVPSRFSAGGSGTEFTLTISSLQPDDFGTYYCQQYNSYSLTFGGGTKVEII
notes: as for B2
binding result [2]: binds | binding result [3]: no binding

B5: TRU(XT6)-1002 (Fc fusion)
chain: LPAQVAFTPYAPEPGSTCRLREYYDQTAQMCCSKCSPGQHAKVFCTKTSDTVCDSCEDSTYTQLWNWVPECLSCGSRCSSDQVETQACTREQNRICTCRPGWYCALSKQEGCRLCAPLRKCRPGFGVARPGTETSDVVCKPCAPGTFSNTTSSTDICRPHQICNVVAIPGNASMDAVCTSTSPTRSMAPGAVHLPQPVSTRSQHTQPTPEPSTAPSTSFLLPMGPSPPAEGSTGDTGEPKSSDKTHTCPPCPAPEAAGAPSVFLFPPKPKDTLMISRTPEVTCVVVDVSHEDPEVKFNWYVDGVEVHNAKTKPREEQYNSTYRVVSVLTVLHQDWLNGKAYACAVSNKALPAPIEKTISKAKGQPREPQVYTLPPSRDELTKNQVSLTCLVKGFYPSDIAVEWESNGQPENNYKTTPPVLDSDGSFFLYSKLTVDKSRWQQGNVFSCSVMHEALHNHYTQKSLSLSPGQRHNNSSLNTRTQKARHSPNSEVQLLESGGGLVQPGGSLRLSCAASGFTFSFYQMHWVRQAPGKGLEWVSGIYPSGGYTKYADSVKGRFTISRDNSKNTLYLQMNSLRAEDTAVYYCARDLGYGSSWYYFDYWGQGTLVTVSSGGGGSGGGGSGGGGSQSALTQPASVSGSPGQSITISCSGTDSDVGGYNHVSWYQQHPGKAPKLIIYDVDHRPSGISNRFSGSKSGNTASLTISGLQAEDEADYYCSSYRSGSTYVFGTGTKVTVL
notes: also called Xceptor TNFRSF1B::anti-HIL6
Kd [4]: 3.1 pM | koff [4]: 0.00014 s⁻¹ | kon [4]: 4.7e+07 M⁻¹ s⁻¹ | binding result [3]: no binding
